According to PMC6336796 (Nature Communications, 2019):

Biological target: T1, Flag-CENP-E (UniProt Q02224 1-2701)
T1 construct: CENP-E; Primers are in Supplementary Data 3; also called Flag-CENP-E protein; source: HEK293T, transfected, mitotic cells
Test: pull-down; Flag-CENP-E purified from mitotic HEK293T lysate and eluted with 3x Flag peptide, incubated with Myc-GFP or Myc-HOIP bound to anti-c-Myc affinity gel; blot with anti-Flag
Conditions: both partners purified

T1 sequence (Q02224 whole entry): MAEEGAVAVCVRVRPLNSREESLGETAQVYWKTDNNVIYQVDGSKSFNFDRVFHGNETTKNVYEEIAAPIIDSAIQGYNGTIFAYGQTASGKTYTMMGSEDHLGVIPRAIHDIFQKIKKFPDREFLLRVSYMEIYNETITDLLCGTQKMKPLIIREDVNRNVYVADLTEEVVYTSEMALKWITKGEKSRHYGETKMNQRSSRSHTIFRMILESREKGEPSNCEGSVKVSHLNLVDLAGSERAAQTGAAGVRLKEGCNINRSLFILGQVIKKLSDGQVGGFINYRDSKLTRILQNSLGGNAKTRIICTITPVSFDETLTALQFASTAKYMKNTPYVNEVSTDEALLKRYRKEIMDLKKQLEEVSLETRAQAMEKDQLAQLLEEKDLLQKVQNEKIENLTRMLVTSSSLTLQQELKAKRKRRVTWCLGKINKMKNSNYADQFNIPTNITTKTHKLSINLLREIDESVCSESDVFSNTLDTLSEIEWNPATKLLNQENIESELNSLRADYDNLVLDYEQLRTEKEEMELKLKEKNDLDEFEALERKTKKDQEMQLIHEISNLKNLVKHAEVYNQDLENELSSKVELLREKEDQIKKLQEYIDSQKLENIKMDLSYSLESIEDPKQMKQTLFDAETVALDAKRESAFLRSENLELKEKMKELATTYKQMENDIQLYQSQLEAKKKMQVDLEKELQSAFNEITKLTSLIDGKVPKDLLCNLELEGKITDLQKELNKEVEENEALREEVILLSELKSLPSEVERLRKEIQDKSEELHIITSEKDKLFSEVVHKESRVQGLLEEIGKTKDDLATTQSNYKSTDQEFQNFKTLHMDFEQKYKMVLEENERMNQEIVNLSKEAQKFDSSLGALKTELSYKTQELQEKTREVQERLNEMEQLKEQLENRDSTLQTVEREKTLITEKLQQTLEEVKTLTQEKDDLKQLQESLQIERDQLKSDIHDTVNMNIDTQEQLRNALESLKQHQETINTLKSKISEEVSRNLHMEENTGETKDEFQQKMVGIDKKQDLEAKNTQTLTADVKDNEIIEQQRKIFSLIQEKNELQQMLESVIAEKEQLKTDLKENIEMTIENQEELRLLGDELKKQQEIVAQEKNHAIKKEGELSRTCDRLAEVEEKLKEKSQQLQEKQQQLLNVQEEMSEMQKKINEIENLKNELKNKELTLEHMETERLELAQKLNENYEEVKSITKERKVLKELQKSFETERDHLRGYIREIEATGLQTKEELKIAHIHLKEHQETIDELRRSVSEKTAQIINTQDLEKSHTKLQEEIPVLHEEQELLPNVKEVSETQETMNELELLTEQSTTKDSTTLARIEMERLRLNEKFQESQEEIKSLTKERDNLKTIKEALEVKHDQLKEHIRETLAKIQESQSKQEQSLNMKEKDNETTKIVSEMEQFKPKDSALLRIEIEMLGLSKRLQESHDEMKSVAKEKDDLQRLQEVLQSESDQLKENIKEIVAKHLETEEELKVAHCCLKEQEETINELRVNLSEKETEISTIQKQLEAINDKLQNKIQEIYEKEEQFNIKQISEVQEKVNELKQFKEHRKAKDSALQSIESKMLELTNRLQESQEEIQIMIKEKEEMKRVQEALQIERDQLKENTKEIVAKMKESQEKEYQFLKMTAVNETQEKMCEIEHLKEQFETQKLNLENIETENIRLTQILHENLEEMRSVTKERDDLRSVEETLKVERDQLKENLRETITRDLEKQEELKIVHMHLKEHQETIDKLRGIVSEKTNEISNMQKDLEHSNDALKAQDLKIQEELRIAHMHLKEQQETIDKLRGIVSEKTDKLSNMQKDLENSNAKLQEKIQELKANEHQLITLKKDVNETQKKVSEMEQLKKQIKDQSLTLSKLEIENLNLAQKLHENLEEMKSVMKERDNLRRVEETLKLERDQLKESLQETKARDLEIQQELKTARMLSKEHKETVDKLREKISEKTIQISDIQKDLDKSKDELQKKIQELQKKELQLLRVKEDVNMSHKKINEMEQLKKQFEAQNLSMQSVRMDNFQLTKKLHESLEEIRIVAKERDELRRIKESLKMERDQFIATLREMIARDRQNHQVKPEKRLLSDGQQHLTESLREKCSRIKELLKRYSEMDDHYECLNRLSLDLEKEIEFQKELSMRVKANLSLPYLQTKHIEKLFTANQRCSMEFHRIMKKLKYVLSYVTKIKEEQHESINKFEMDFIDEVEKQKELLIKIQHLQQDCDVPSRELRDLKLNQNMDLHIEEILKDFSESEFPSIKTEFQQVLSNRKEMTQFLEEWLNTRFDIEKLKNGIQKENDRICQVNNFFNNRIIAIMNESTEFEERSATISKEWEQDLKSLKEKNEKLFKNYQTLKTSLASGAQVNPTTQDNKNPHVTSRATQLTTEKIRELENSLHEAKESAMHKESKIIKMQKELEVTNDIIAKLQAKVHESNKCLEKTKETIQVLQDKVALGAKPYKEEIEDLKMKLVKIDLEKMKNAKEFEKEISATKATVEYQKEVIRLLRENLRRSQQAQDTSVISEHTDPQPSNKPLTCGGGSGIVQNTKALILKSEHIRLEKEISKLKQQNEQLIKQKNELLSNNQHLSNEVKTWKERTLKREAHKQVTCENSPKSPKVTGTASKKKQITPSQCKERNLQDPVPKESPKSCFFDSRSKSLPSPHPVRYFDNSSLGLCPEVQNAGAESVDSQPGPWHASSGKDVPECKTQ

B1: Myc-HOIP (enzyme, UniProt Q96EP0 1-1072, looked up)
chain: MPGEEEERAFLVAREELASALRRDSGQAFSLEQLRPLLASSLPLAARYLQLDAARLVRCNAHGEPRNYLNTLSTALNILEKYGRNLLSPQRPRYWRGVKFNNPVFRSTVDAVQGGRDVLRLYGYTEEQPDGLSFPEGQEEPDEHQVATVTLEVLLLRTELSLLLQNTHPRQQALEQLLEDKVEDDMLQLSEFDPLLREIAPGPLTTPSVPGSTPGPCFLCGSAPGTLHCPSCKQALCPACDHLFHGHPSRAHHLRQTLPGVLQGTHLSPSLPASAQPRPQSTSLLALGDSSLSSPNPASAHLPWHCAACAMLNEPWAVLCVACDRPRGCKGLGLGTEGPQGTGGLEPDLARGRWACQSCTFENEAAAVLCSICERPRLAQPPSLVVDSRDAGICLQPLQQGDALLASAQSQVWYCIHCTFCNSSPGWVCVMCNRTSSPIPAQHAPRPYASSLEKGPPKPGPPRRLSAPLPSSCGDPEKQRQDKMREEGLQLVSMIREGEAAGACPEEIFSALQYSGTEVPLQWLRSELPYVLEMVAELAGQQDPGLGAFSCQEARRAWLDRHGNLDEAVEECVRTRRRKVQELQSLGFGPEEGSLQALFQHGGDVSRALTELQRQRLEPFRQRLWDSGPEPTPSWDGPDKQSLVRRLLAVYALPSWGRAELALSLLQETPRNYELGDVVEAVRHSQDRAFLRRLLAQECAVCGWALPHNRMQALTSCECTICPDCFRQHFTIALKEKHITDMVCPACGRPDLTDDTQLLSYFSTLDIQLRESLEPDAYALFHKKLTEGVLMRDPKFLWCAQCSFGFIYEREQLEATCPQCHQTFCVRCKRQWEEQHRGRSCEDFQNWKRMNDPEYQAQGLAMYLQENGIDCPKCKFSYALARGGCMHFHCTQCRHQFCSGCYNAFYAKNKCPEPNCRVKKSLHGHHPRDCLFYLRDWTALRLQKLLQDNNVMFNTEPPAGARAVPGGGCRVIEQKEVPNGLRDEACGKETPAGYAGLCQAHYKEYLVSLINAHSLDPATLYEVEELETATERYLHVRPQPLAGEDPPAYQARLLQKLTEEVPLGQSIPRRRK
notes: HOIP (RNF31) wild type; Construct supplied by Dr. Kazuhiro Iwai; also called RNF31; purified HOIP; source: HEK293T, transfected, mitotic cells
binding result: binds
